Data as given in the supplement of paper PMC9112550, “Optimization of the antimicrobial peptide Bac7 by deep mutational scanning” (BMC Biology, 2022).

Test system: Escherichia coli TOP10
Assay: shrunken log2 fold change of peptide-encoding DNA abundance (4.5 h post-induction vs induction); higher = less antimicrobial activity (less host growth inhibition)
Details: time post-induction: 4.5 h; library: site-saturation at positions 5, 18, 19, 20
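Further: peptides expressed intracellularly from a pBAD plasmid library in pooled LB shake-flask culture, induced with 0.3% L-arabinose, DNA abundance read by NGS, three biological replicates, DESeq2 with apeglm shrinkage.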

Row | Sequence | shrunken log2 fold change
1 | RRIRIRPPRLPRPRPRPCSAPRP | -0.392
2 | RRIRFRPPRLPRPRPRPRDIPRP | -0.11
3 | RRIRRRPPRLPRPRPRPCHFPRP | -0.181
4 | RRIRVRPPRLPRPRPRPITKPRP | 0.0714
5 | RRIRERPPRLPRPRPRPKQIPRP | 0.169
6 | RRIRYRPPRLPRPRPRPDNMPRP | -0.0223
7 | RRIRWRPPRLPRPRPRPRQIPRP | 0.459
8 | RRIRYRPPRLPRPRPRPTLSPRP | -0.0535
9 | RRIRLRPPRLPRPRPRPVTNPRP | -0.0302
10 | RRIRPRPPRLPRPRPRPFGPPRP | -0.083
11 | RRIRDRPPRLPRPRPRPMRYPRP | 0.104
12 | RRIRWRPPRLPRPRPRPIGSPRP | -0.0153
13 | RRIRKRPPRLPRPRPRPADLPRP | 0.056
14 | RRIRRRPPRLPRPRPRPDVAPRP | 0.592
15 | RRIRLRPPRLPRPRPRPHAAPRP | -0.343
16 | RRIRSRPPRLPRPRPRPVVYPRP | -0.0697
17 | RRIRLRPPRLPRPRPRPWAPPRP | 1.18
18 | RRIRARPPRLPRPRPRPAWGPRP | 0.616
19 | RRIRDRPPRLPRPRPRPAYIPRP | -0.0656
20 | RRIRWRPPRLPRPRPRPYAIPRP | -0.347
21 | RRIRCRPPRLPRPRPRPNAHPRP | -0.221
22 | RRIRWRPPRLPRPRPRPFPVPRP | -0.0948
23 | RRIRKRPPRLPRPRPRPSCMPRP | -0.0405
24 | RRIRERPPRLPRPRPRPGRAPRP | 0.367
25 | RRIRQRPPRLPRPRPRPLESPRP | -0.0344

Row | Sequence | shrunken log2 fold change
26 | RRIRRRPPRLPRPRPRPFTYPRP | -0.22
27 | RRIRMRPPRLPRPRPRPRAYPRP | 0.426
28 | RRIRLRPPRLPRPRPRPQYKPRP | -1.05
29 | RRIRCRPPRLPRPRPRPEALPRP | 0.0749
30 | RRIRFRPPRLPRPRPRPWPYPRP | 0.0261
31 | RRIRSRPPRLPRPRPRPGRVPRP | 0.162
32 | RRIRKRPPRLPRPRPRPIRVPRP | -0.0018
33 | RRIRVRPPRLPRPRPRPSRLPRP | 0.599
34 | RRIRFRPPRLPRPRPRPPAFPRP | 0.112
35 | RRIRERPPRLPRPRPRPCWGPRP | 0.0218
36 | RRIRTRPPRLPRPRPRPAAFPRP | -0.128
37 | RRIRHRPPRLPRPRPRPTVVPRP | -0.00918
38 | RRIRHRPPRLPRPRPRPFGQPRP | -0.162
39 | RRIRFRPPRLPRPRPRPQKLPRP | -0.211
40 | RRIRRRPPRLPRPRPRPNQCPRP | -0.0957
41 | RRIRPRPPRLPRPRPRPVNEPRP | -0.00503
42 | RRIRGRPPRLPRPRPRPFKKPRP | 0.0278
43 | RRIRMRPPRLPRPRPRPFERPRP | 0.122
44 | RRIRARPPRLPRPRPRPYNYPRP | 1.34
45 | RRIRVRPPRLPRPRPRPLVNPRP | -0.244
46 | RRIRHRPPRLPRPRPRPTSTPRP | -0.199
47 | RRIRKRPPRLPRPRPRPHMMPRP | 0.217
48 | RRIRRRPPRLPRPRPRPMPDPRP | 0.442
49 | RRIRPRPPRLPRPRPRPNAIPRP | -0.0755
50 | RRIRERPPRLPRPRPRPVLHPRP | -0.0594

Row | Sequence | shrunken log2 fold change
51 | RRIRRRPPRLPRPRPRPGMTPRP | 0.129
52 | RRIRLRPPRLPRPRPRPKNYPRP | -0.458
53 | RRIRPRPPRLPRPRPRPSVLPRP | 0.0488
54 | RRIRKRPPRLPRPRPRPNRNPRP | -0.234
55 | RRIRDRPPRLPRPRPRPLYIPRP | -0.266
56 | RRIRKRPPRLPRPRPRPCFQPRP | -0.112
57 | RRIRKRPPRLPRPRPRPHRFPRP | -0.0599
58 | RRIRQRPPRLPRPRPRPVPVPRP | -0.228
59 | RRIRFRPPRLPRPRPRPNCGPRP | -0.0249
60 | RRIRWRPPRLPRPRPRPILVPRP | 0.0752
61 | RRIRLRPPRLPRPRPRPYIKPRP | -0.882
62 | RRIRNRPPRLPRPRPRPQNQPRP | -0.212
63 | RRIRVRPPRLPRPRPRPVDQPRP | -0.0903
64 | RRIRYRPPRLPRPRPRPICIPRP | -0.08
65 | RRIRQRPPRLPRPRPRPVNEPRP | -0.325
66 | RRIRDRPPRLPRPRPRPGDSPRP | 0.13
67 | RRIRPRPPRLPRPRPRPFWPPRP | 0.199
68 | RRIRSRPPRLPRPRPRPMCMPRP | -0.000628
69 | RRIRCRPPRLPRPRPRPWGDPRP | -0.142
70 | RRIRDRPPRLPRPRPRPQMKPRP | -0.166
71 | RRIRYRPPRLPRPRPRPNLNPRP | -0.393
72 | RRIRGRPPRLPRPRPRPPTMPRP | 0.429
73 | RRIRGRPPRLPRPRPRPDVWPRP | 1.36
74 | RRIRNRPPRLPRPRPRPKIHPRP | -0.719
75 | RRIRHRPPRLPRPRPRPIRPPRP | -0.125

Row | Sequence | shrunken log2 fold change
76 | RRIRSRPPRLPRPRPRPQNYPRP | -0.322
77 | RRIRDRPPRLPRPRPRPHGRPRP | 0.0088
78 | RRIRQRPPRLPRPRPRPTPVPRP | 0.286
79 | RRIRNRPPRLPRPRPRPSKMPRP | -0.22
80 | RRIRVRPPRLPRPRPRPTRGPRP | 0.412
81 | RRIRERPPRLPRPRPRPQRSPRP | -0.106
82 | RRIRFRPPRLPRPRPRPHYWPRP | -0.505
83 | RRIRVRPPRLPRPRPRPDEHPRP | 0.0107
84 | RRIRCRPPRLPRPRPRPCKAPRP | -0.0437
85 | RRIRPRPPRLPRPRPRPALTPRP | 0.241
86 | RRIRDRPPRLPRPRPRPTRFPRP | 0.0657
87 | RRIRLRPPRLPRPRPRPNIQPRP | -0.689
88 | RRIRARPPRLPRPRPRPSDLPRP | -0.073
89 | RRIRCRPPRLPRPRPRPGTYPRP | -0.628
90 | RRIRSRPPRLPRPRPRPEPSPRP | 0.859
91 | RRIRYRPPRLPRPRPRPPVKPRP | -0.102
92 | RRIRQRPPRLPRPRPRPLWLPRP | 0.0736
93 | RRIRARPPRLPRPRPRPFAGPRP | 0.0859
94 | RRIRLRPPRLPRPRPRPDRWPRP | -0.0824
95 | RRIRHRPPRLPRPRPRPFPNPRP | -0.0913
96 | RRIRLRPPRLPRPRPRPDFDPRP | -0.047
97 | RRIRTRPPRLPRPRPRPFVTPRP | -0.298
98 | RRIRCRPPRLPRPRPRPPLFPRP | 0.934
99 | RRIRCRPPRLPRPRPRPQKDPRP | -0.202
100 | RRIRRRPPRLPRPRPRPQTAPRP | -0.11

Row | Sequence | shrunken log2 fold change
101 | RRIRCRPPRLPRPRPRPGNCPRP | -0.0286
102 | RRIRARPPRLPRPRPRPPGEPRP | 0.381
103 | RRIRLRPPRLPRPRPRPMGCPRP | 0.031
104 | RRIRDRPPRLPRPRPRPYQRPRP | 0.058
105 | RRIRARPPRLPRPRPRPDGQPRP | 0.0234
106 | RRIRSRPPRLPRPRPRPKIKPRP | -0.346
107 | RRIRMRPPRLPRPRPRPNQCPRP | -0.198
108 | RRIRSRPPRLPRPRPRPPFKPRP | 0.0589
109 | RRIRMRPPRLPRPRPRPLTPPRP | 1.13
110 | RRIRFRPPRLPRPRPRPKFRPRP | -0.0326
111 | RRIRWRPPRLPRPRPRPSRGPRP | 0.532
112 | RRIRNRPPRLPRPRPRPGQMPRP | 0.00315
113 | RRIRHRPPRLPRPRPRPIQRPRP | -0.204
114 | RRIRMRPPRLPRPRPRPGRRPRP | 0.724
115 | RRIRQRPPRLPRPRPRPKYKPRP | -0.445
116 | RRIRPRPPRLPRPRPRPMMQPRP | -0.369
117 | RRIRRRPPRLPRPRPRPWRYPRP | 0.322
118 | RRIRRRPPRLPRPRPRPRVQPRP | 0.445
119 | RRIRRRPPRLPRPRPRPWSSPRP | 0.0446
120 | RRIRVRPPRLPRPRPRPVQIPRP | -0.0141
121 | RRIRRRPPRLPRPRPRPCAGPRP | 0.357
122 | RRIRKRPPRLPRPRPRPHRNPRP | -0.167
123 | RRIRIRPPRLPRPRPRPRGTPRP | 0.277
124 | RRIRGRPPRLPRPRPRPNIMPRP | 0.0649
125 | RRIRPRPPRLPRPRPRPVKYPRP | -0.303

Row | Sequence | shrunken log2 fold change
126 | RRIRPRPPRLPRPRPRPMWMPRP | 0.000224
127 | RRIRSRPPRLPRPRPRPTSKPRP | 0.0753
128 | RRIRYRPPRLPRPRPRPHAHPRP | -0.479
129 | RRIRYRPPRLPRPRPRPHHVPRP | -0.00992
130 | RRIRFRPPRLPRPRPRPKHQPRP | -0.131
131 | RRIRERPPRLPRPRPRPWQQPRP | 0.015
132 | RRIRFRPPRLPRPRPRPVAFPRP | -0.141
133 | RRIRERPPRLPRPRPRPEKPPRP | 3.84
134 | RRIRTRPPRLPRPRPRPAIGPRP | 0.1
135 | RRIRARPPRLPRPRPRPQECPRP | -0.0292
136 | RRIRVRPPRLPRPRPRPYKCPRP | -0.0495
137 | RRIRIRPPRLPRPRPRPRDMPRP | -0.902
138 | RRIRIRPPRLPRPRPRPEIEPRP | -0.0562
139 | RRIRFRPPRLPRPRPRPHQTPRP | 0.0857
140 | RRIRCRPPRLPRPRPRPQCRPRP | -0.421
141 | RRIRHRPPRLPRPRPRPVMTPRP | -0.496
142 | RRIRYRPPRLPRPRPRPMVNPRP | -0.0376
143 | RRIRDRPPRLPRPRPRPEPHPRP | 0.533
144 | RRIRPRPPRLPRPRPRPPMDPRP | 0.126
145 | RRIRERPPRLPRPRPRPDTPPRP | -0.562
146 | RRIRDRPPRLPRPRPRPNWMPRP | -0.0161
147 | RRIRNRPPRLPRPRPRPPVSPRP | -0.401
148 | RRIRTRPPRLPRPRPRPWQLPRP | -0.189
149 | RRIRFRPPRLPRPRPRPWFWPRP | -0.285
150 | RRIRMRPPRLPRPRPRPYKSPRP | -0.215
